Measurements as given in patent US6495376B1, “Methods and compositions for regulating protein-protein interactions” (Beth Israel Deaconess Medical Center, priority 1999, dated 2002).

Experiments:
[1] = system: MPM-2 antigens (mitotic phosphoproteins) of mitotic HeLa cell extracts; assay: GST pulldown from mitotic HeLa cell extracts, MPM-2 immunoblotting (phosphoprotein-binding activity)
Protocol: GST-fusion proteins containing the WW-domain, PPIase-domain or the entire Pin 1 protein were prepared and incubated with interphase (G1/S arrested; Control) or dividing (M phase) HeLa cell extracts using well-known procedures (Lu, K. P., et al., Nature 380:544 (1996); (Shen, M., et al., Genes & Devl. 12:706 (1998)). Briefly, HeLa cells were arrested at the G1/S boundary or mitosis by incubation with thymidine and aphidicolin or nocodazole for 16 h, respectively. The cells were lysed and supernatants incubated with 10 μl of agarose beads containing GST-Pin1; GST-WW-domain of Pin1; GST-PPIase domain of Pin1; or control GST for 2 h at 4° C. […]
Pintide and its nonphosphorylated counterpart were synthesized and incubated with GST-Pin1 or the GST-WW-domain of Pin1 in a binding buffer, using established procedures (Shen, M. et al., Genes & Dev 12:706 (1998)). […] To obtain semi-quantitative data, films of immunoblots were scanned at the region of 55 kDa, the major Pin1-binding protein, and data analyzed using ImageQuan (ScanJet II CX). The peptide binding constants were measured using a fluorescence polarization assay (Jiskoot, W. et al., Anal Biochem 196:421 (1991)). […] Fluorescence polarization values were obtained using a Pan Vera Beacon 2000 system, as described by the manufacturer. […]

phosphorylated tau = assay: GST-Pin1 pulldown of tau; format: binding; settings: tau phosphorylated by Cdc2 in vitro
Text: Pin1 binds and regulates the function of a defined subset of mitotic phosphoproteins by interacting with conserved phosphorylated Ser/Thr-Pro motifs that are also recognized by MPM-2, a mitosis-specific, phosphorylation-dependent monoclonal antibody (mAb) (Yaffe, M. B. et al., Science 278:1957-1960 (1997); Shen, M. et al., Genes Dev. 12:706-720 (1 998)). Tau is an MPM-2 antigen phosphorylated on multiple Ser/Thr-Pro motifs during mitosis (Illenberger, S. et al., Mol Biol Cell 9:1495-1512 (1998)). Experiments were undertaken to determine whether Pin1 binds tau. Tau isoform was either synthesized by in vitro transcription and translation in the presence of ^35S-Met or produced in bacteria as an N-terminal His-tagged protein, followed by purification using NTA-Ni columns (Yaffe, M. B. et al., Science 278:1957-1960 (1997); Shen, M. et al., Genes Dev. 12:706-720 (1998)). To generate interphase- and mitosis-specific phosphorylated form of tau, tau was incubated with Xenopus interphase and mitotic extracts, respectively (Shen, M. et al., Genes Dev. 12:706-720 (1998)). […]
To determine whether Pin1 interacts with pT231-tau, GST-Pin1 beads were used to isolate tau from AD brain extracts or PHFs and T231 phosphorylation detected using CP9. […]

WFYSPFLE = assay: Fluorescence anisotropy binding to fluorescein-labeled nonphosphorylated control peptide; settings: nonphosphorylated peptide
peptide substrate = assay: PPIase activity assay with peptide substrate; format: biochemical; settings: relative to wild-type protein defined as 100%
WFYpSPFLE (Pintide) = assay: Fluorescence anisotropy (polarization) binding to fluorescein-labeled phosphorylated Pintide analogue
Text: To determine the affinity of Pin1, and its WW or PPIase domain for phosphopeptides, peptides were labeled with fluorescein and their interactions with Pin1 measured using quantitative fluorescence anisotrophy. To prevent nonspecific labeling, a Pintide analogue (WFYpSPFLE) SEQ ID NO: 9 was used, which binds Pin1 with a high affinity based on the peptide library screen as described by (Lu, K. P. et al., U.S. Ser. No. 60/058,164 (1997), the teachings of which are incorporated herein in their entirety.
Pintide and its nonphosphorylated counterpart were synthesized and incubated with GST-Pin1 or the GST-WW-domain of Pin1 in a binding buffer, using established procedures (Shen, M. et al., Genes & Dev 12:706 (1998)). After a 1 hr incubation, mitotic HeLa cell extracts were added and subjected to GST pull down experiments, followed by immunoblotting analysis using the MPM-2 antibody. To obtain semi-quantitative data, films of immunoblots were scanned at the region of 55 kDa, the major Pin1-binding protein, and data analyzed using ImageQuan (ScanJet II CX). The peptide binding constants were measured using a fluorescence polarization assay (Jiskoot, W. et al., Anal Biochem 196:421 (1991)). Peptides were fluorescein labeled at the N-terminus using the Fluorescein Amine Labeling Kit (Pan Vera Corp.) and purified by TLC according to the manufacturer's […]. To prevent nonspecific labeling, a Pintide analogue (WFYpSPFLE) SEQ ID NO: 8 and the nonphosphorylated control were used. Various concentrations of Pin1 and its mutant proteins were incubated with 0.1 μM of the labeled peptides in a binding buffer containing 50 mM HEPES, pH 7.4, 100 mM NaCl, 2% glycerol. Fluorescence polarization values were obtained using a Pan Vera Beacon 2000 system, as described by the manufacturer.

phosphorylated tau, sequence (P10636 45-216 isoform P10636-2 limits assumed): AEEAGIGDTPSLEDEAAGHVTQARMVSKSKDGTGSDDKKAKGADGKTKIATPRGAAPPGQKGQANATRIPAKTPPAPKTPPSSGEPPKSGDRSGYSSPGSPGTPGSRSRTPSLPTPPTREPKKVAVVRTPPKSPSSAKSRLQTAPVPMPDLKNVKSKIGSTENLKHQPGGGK

B1: PPlase Domain: C-terminal PPIase domain (amino acids 47-163) of Pin1 (protein)
chain: NGQGEPARVRCSHLLVKHSQSRRPSSWRQEKITRTKEEALELINGYIQKIKSGEEDFESLASQFSDCSSAKARGDLGAFSRGQMQKPFEDASFALRTGEMSGPVFTDSGIHIILRTE
- Phosphoprotein binding activity ([1]; GST-fusion proteins with mitotic extracts, MPM2 antibody): −
- binding to mitotic phosphoproteins / MPM-2 antigens (in words) ([1]; mitotic HeLa cell extracts): no specific binding
- binding to Cdc2 phosphorylated tau (phosphorylated tau): not
- WFYSPFLE Kd (WFYSPFLE): Not binding
- WFYSPFLE Kd (WFYSPFLE; listed as PPIase domain): No binding was detected
- PPlase Activity (%) (peptide substrate): 90%
- fold lower affinity for the phosphopeptide than the WW-domain (WFYpSPFLE (Pintide)): about 10 fold
- binding to Pintide (in words) (WFYpSPFLE (Pintide); fluorescence anisotropy): No binding was detected
- Kd (WFYpSPFLE (Pintide); low affinity binding site, read-out: WFYpSPFLE Kd(μM) Low affinity): 15 µM
